Source: US20110014224A1

Biological target: HLA-B1501 (human)
Assay: competition with radiolabeled probe peptide for purified HLA, plate capture, cpm

AVINTTCNYGQ (modifications not checked) [Mtb8.4 5-15 peptide …]
IC50: 10 nM
